From patent publication US20230395193A1 (priority 2020, published 2023)

B1: M-Q8NDZ4 (protein, UniProt Q8NDZ4 36-430, looked up)
Divergent protein kinase …: LASWQRNELTDRRFLQLNKCPACFGTSWCRRFLNGQVVFEAWGRLRLLDFLNVKNVYFAQYGEPREGGRRRVVLKRLGSQRELAQLDQSICKRATGRPRCDLLQAMPRTEFARLNGDVRLLTPEAVEGWSDLVHCPSQRLLDRLVRRYAETKDSGSFLLRNLKDSERMQLLLTLAFNPEPLVLQSFPSDEGWPFAKYLGACGRMVAVNYVGEELWSYFNAPWEKRVDLAWQLMEIAEQLTNNDFEFALYLLDVSFDNFAVGPRDGKVIIVDAENVLVADKRLIRQNKPENWDVWYESKFDDCDKEACLSFSKEILCARATVDHNYYAVCQNLLSRHATWRGTSGGLLHDPPSEIAKDGRLEALLDECANPKKRYGRFQAAKELREYLAQLSNNVR
B2: M-Q8WUD6 (protein, UniProt Q8WUD6 2-406, looked up)
Cholinephosphotransferase 1: AAGAGAGSAPRWLRALSEPLSAAQLRRLEEHRYSAAGVSLLEPPLQLYWTWLLQWIPLWMAPNSITLLGLAVNVVTTLVLISYCPTATEEAPYWTYLLCALGLFIYQSLDAIDGKQARRTNSCSPLGELFDHGCDSLSTVFMAVGASIAARLGTYPDWFFFCSFIGMFVFYCAHWQTYVSGMLRFGKVDVTEIQIALVIVFVLSAFGGATMWDYTIPILEIKLKILPVLGFLGGVIFSCSNYFHVILHGGVGKNGSTIAGTSVLSPGLHIGLIIILAIMIYKKSATDVFEKHPCLYILMFGCVFAKVSQKLVVAHMTKSELYLQDTVFLGPGLLFLDQYFNNFIDEYVVLWMAMVISSFDMVIYFSALCLQISRHLHLNIFKTACHQAPEQVQVLSSKSHQNNMD
B3: M-Q96HR9 (protein, UniProt Q96HR9 1-211, looked up)
Receptor expression-enhancing …: MDGLRQRVEHFLEQRNLVTEVLGALEAKTGVEKRYLAAGAVTLLSLYLLFGYGASLLCNLIGFVYPAYASIKAIESPSKDDDTVWLTYWVVYALFGLAEFFSDLLLSWFPFYYVGKCAFLLFCMAPRPWNGALMLYQRVVRPLFLRHHGAVDRIMNDLSGRALDAAAGITRNVLQVLARSRAGITPVAVAGPSTPLEADLKPSQTPQPKDK
B4: M-Q8NEW0 (protein, UniProt Q8NEW0 1-376, looked up)
Zinc transporter 7: MLPLSIKDDEYKPPKFNLFGKISGWFRSILSDKTSRNLFFFLCLNLSFAFVELLYGIWSNCLGLISDSFHMFFDSTAILAGLAASVISKWRDNDAFSYGYVRAEVLAGFVNGLFLIFTAFFIFSEGVERALAPPDVHHERLLLVSILGFVVNLIGIFVFKHGGHGHSHGSGHGHSHSLFNGALDQAHGHVDHCHSHEVKHGAAHSHDHAHGHGHFHSHDGPSLKETTGPSRQILQGVFLHILADTLGSIGVIASAIMMQNFGLMIADPICSILIAILIVVSVIPLLRESVGILMQRTPPLLENSLPQCYQRVQQLQGVYSLQEQHFWTLCSDVYVGTLKLIVAPDADARWILSQTHNIFTQAGVRQLYVQIDFAAM
modifications: interaction partner of viral M protein
B5: M-Q96ER3 (protein, UniProt Q96ER3 1-474, looked up)
Protein SAAL1: MDRNPSPPPPGRDKEEEEEVAGGDCIGSTVYSKHWLFGVLSGLIQIVSPENTKSSSDDEEQLTELDEEMENEICRVWDMSMDEDVALFLQEFNAPDIFMGVLAKSKCPRLREICVGILGNMACFQEICVSISSDKNLGQVLLHCLYDSDPPTLLETSRLLLTCLSQAEVASVWVERIQEHPAIYDSICFIMSSSTNVDLLVKVGEVVDKLFDLDEKLMLEWVRNGAAQPLDQPQEESEEQPVFRLVPCILEAAKQVRSENPEWLDVYMHILQLLTTVDDGIQAIVHCPDTGKDIWNLLFDLVCHEFCQSDDPPIILQEQKTVLASVFSVLSAIYASQTEQEYLKIEKVDLPLIDSLIRVLQNMEQCQKKPENSAESNTEETKRTDLTQDDFHLKILKDILCEFLSNIFQALTKETVAQGVKEGQLSKQKCSSAFQNLLPFYSPVVEDFIKILREVDKALADDLEKNFPSLKVQT
modifications: host interactor of M
B6: M-Q8TBF5 (protein, UniProt Q8TBF5 22-258, looked up)
GPI …: LTRGPAAAFTAARSDAGIRAMCSEIILRQEVLKDGFHRDLLIKVKFGESIEDLHTCRLLIKQDIPAGLYVDPYELASLRERNITEAVMVSENFDIEAPNYLSKESEVLIYARRDSQCIDCFQAFLPVHCRYHRPHSEDGEASIVVNNPDLLMFCDQEFPILKCWAHSEVAAPCALENEDICQWNKMKYKSVYKNVILQVPVGLTVHTSLVCSVTLLITILCSTLILVAVFKYGHFSL
modifications: prey of SARS-CoV-2 M
B7: M-Q96AA3 (protein, UniProt Q96AA3 1-541, looked up)
Man(5)GlcNAc(2)-PP-dolichol …: MGSQEVLGHAARLASSGLLLQVLFRLITFVLNAFILRFLSKEIVGVVNVRLTLLYSTTLFLAREAFRRACLSGGTQRDWSQTLNLLWLTVPLGVFWSLFLGWIWLQLLEVPDPNVVPHYATGVVLFGLSAVVELLGEPFWVLAQAHMFVKLKVIAESLSVILKSVLTAFLVLWLPHWGLYIFSLAQLFYTTVLVLCYVIYFTKLLGSPESTKLQTLPVSRITDLLPNITRNGAFINWKEAKLTWSFFKQSFLKQILTEGERYVMTFLNVLNFGDQGVYDIVNNLGSLVARLIFQPIEESFYIFFAKVLERGKDATLQKQEDVAVAAAVLESLLKLALLAGLTITVFGFAYSQLALDIYGGTMLSSGSGPVLLRSYCLYVLLLAINGVTECFTFAAMSKEEVDRYNFVMLALSSSFLVLSYLLTRWCGSVGFILANCFNMGIRITQSLCFIHRYYRRSPHRPLAGLHLSPVLLGTFALSGGVTAVSEVFLCCEQGWPARLAHIAVGAFCLGATLGTAFLTETKLIHFLRTQLGVPRRTDKMT
modifications: interaction partner of viral M protein
B8: M-Q8TCJ2 (protein, UniProt Q8TCJ2 2-826, looked up)
Dolichyl-diphosphooligosacchar …: AEPSAPESKHKSSLNSSPWSGLMALGNSRHGHHGPGAQCAHKAAGGAAPPKPAPAGLSGGLSQPAGWQSLLSFTILFLAWLAGFSSRLFAVIRFESIIHEFDPWFNYRSTHHLASHGFYEFLNWFDERAWYPLGRIVGGTVYPGLMITAGLIHWILNTLNITVHIRDVCVFLAPTFSGLTSISTFLLTRELWNQGAGLLAACFIAIVPGYISRSVAGSFDNEGIAIFALQFTYYLWVKSVKTGSVFWTMCCCLSYFYMVSAWGGYVFIINLIPLHVFVLLLMQRYSKRVYIAYSTFYIVGLILSMQIPFVGFQPIRTSEHMAAAGVFALLQAYAFLQYLRDRLTKQEFQTLFFLGVSLAAGAVFLSVIYLTYTGYIAPWSGRFYSLWDTGYAKIHIPIIASVSEHQPTTWVSFFFDLHILVCTFPAGLWFCIKNINDERVFVALYAISAVYFAGVMVRLMLTLTPVVCMLSAIAFSNVFEHYLGDDMKRENPPVEDSSDEDDKRNQGNLYDKAGKVRKHATEQEKTEEGLGPNIKSIVTMLMLMLLMMFAVHCTWVTSNAYSSPSVVLASYNHDGTRNILDDFREAYFWLRQNTDEHARVMSWWDYGYQIAGMANRTTLVDNNTWNNSHIALVGKAMSSNETAAYKIMRTLDVDYVLVIFGGVIGYSGDDINKFLWMVRIAEGEHPKDIRESDYFTPQGEFRVDKAGSPTLLNCLMYKMSYYRFGEMQLDFRTPPGFDRTRNAEIGNKDIKFKHLEEAFTSEHWLVRIYKVKAPDNRETLDHKPRVTNIFPKQKYLSKKTTKRKRGYIKNKLVFKKGKKISKKTV

These molecules were tested on SARS-CoV-1, MERS-CoV and SARS-CoV-2 proteins in HEK293T cells.
Design: species or system human

In order of falling MIST_MERS:
1. B1  0.7477
2. B4  0.5834
3. B2  0
4. B3  0
5. B5  0
6. B6  0
7. B7  0
8. B8  0

In order of rising MIST_SARS1:
1. B1  0
2. B3  0
3. B5  0.3763
4. B4  0.6222
5. B7  0.809
6. B2  0.8979
7. B6  0.9901
8. B8  0.991

In order of rising MIST_SARS2:
1. B1  0
2. B8  0.01779
3. B6  0.4273
4. B7  0.5513
5. B2  0.636
6. B4  0.767
7. B5  0.7695
8. B3  0.9557

In order of rising Saint_MERS:
1. B2  0
2. B3  0
3. B5  0
4. B6  0
5. B7  0
6. B8  0
7. B4  0.64
8. B1  1

In order of rising Saint_SARS1:
1. B1  0
2. B3  0
3. B7  0.95
4. B4  0.97
5. B2  0.98
6. B5  0.98
7. B6  0.99
8. B8  1

In order of rising Saint_SARS2:
1. B1  0
2. B8  0
3. B6  0.33
4. B2  0.65
5. B3  0.65
6. B7  0.98
7. B4  1
8. B5  1
